Key:
[1] = rat, in vivo, iv; SD
Method: Animal experiments were performed following the procedures as described earlier[26], with slight adaptations. In short, male Wistar rats (Japan SLC, Shizuoka, Japan) weighing 270–320 g were used in this study. Rats were housed in controlled environmental facilities (temperature: 24 ± 1 °C, humidity: 55% ± 10%) under a 12:12-h light–dark cycle (06:00 h/18:00 h) for more than 1 week and allowed free access to a standard diet and tap water. One day before the experiment, rats were anaesthetized with ethyl ether and implanted surgically with a phycon tube connected to a PE50 catheter in the jugular vein for drug administration and another phycon-PE50 catheter in the femoral vein for blood sampling. Both catheters were externalized through the back in the neck region and secured. Unless otherwise specified, all animal experiments were conducted without restraint or anaesthesia and in a fasted state. On the day of the experiment, each rat was housed in an individual cage and left alone for at least 1 h. INS was dissolved in a 0.1% bovine serum albumin solution. Pulsatile administration of INS was performed by repeated intravenous bolus injections at constant intervals of 6–60 min within 2 h (total dose: 0.5 IU/kg). As controls, a single bolus injection or 2-h infusion were also conducted at doses of 0.5 IU/kg and 0.25 IU/kg/h, respectively. INS (0.025–0.5 IU/kg) was intravenously injected to estimate PK and PD parameters. Blood samples (≤ 0.1 mL) were withdrawn from the femoral vein before and at designated times after dosing. The blood samples were transferred to heparinized tubes, then centrifuged (12,000 × g, 5 min). The isolated plasma was stored frozen at − 20 °C until analysis. Immunoreactive INS concentrations in plasma were determined using an enzyme-linked immunosorbent assay (ELISA) kit (Shibayagi, Gunma, Japan). The mutarotase glucose oxidase method kit (Wako Pure Chemical Industries, Osaka, Japan) was used to measure plasma glucose concentrations. […]
The concentration–time data were analysed by the nonlinear regression program FKDM[27]. […]

[2] = system: plasma glucose concentration; assay: Hypoglycaemic effect (plasma glucose) after intravenous INS, PK-PD indirect response modelling; assay type: in vivo, rat
Source text: An indirect response model was used to analyse the PK–PD relationship. The differential equation for the INS stimulus of the model is as follows:5 dGlc/dt=KGin-1+Smax∙SIG^γ/SC50^γ+SIG^γkGout∙Glc, where Glc is the plasma glucose concentration (mg/dL), SIG is the theoretical signal strength concerned with the hypoglycaemic effect of INS, Smax is the maximum effect, SC50 is the SIG producing 50% of Smax, r is Hill’s constant, KGin is the zero-order rate constant concerned with endogenous glucose production, and kGout is the first-order rate constant (min^−1) concerned with glucose elimination. Before INS is administered, the observed baseline level of Glc is maintained as G00 (105.12 mg/dL), which is determined by KGin = kGout.G00. Equation (5) can comprehensively express the mechanism of action of INS that is not assumed in the following model.
To assess the contribution of the receptor-binding process of INS to the hypoglycaemic effect, the INS receptor-based PK–PD model (IR model) was designed as follows:6 ϕ=CIns∙100/Kd+CIns-ϕ00.
We assumed that SIG is equal to the value of Φ in this model. To evaluate the contribution of the translocation process to the hypoglycaemic effect, the GLUT4 translocation-based PK–PD model (GT model) was designed as follows:7 dG4A/dt=α∙CIns-C00-G4A/TAB, 8 dG4B/dt=G4A/TAB-G4B/TBA. […]

[3] = system: INS receptors, rat soleus muscle cells; details: fixed value in the IR model, read-out: dissociation constant (Kd); cited from earlier work
Source text: In the post-prandial state, the uptake of glucose from the blood in vivo mainly occurs in skeletal muscle, which expresses INS receptors. […] Although there are various kinds of skeletal muscle in the body, it would not be useful to individually model each receptor in all skeletal muscles, because this complicates the model. […] We assumed that SIG is equal to the value of Φ in this model. To evaluate the contribution of the translocation process to the hypoglycaemic effect, the GLUT4 translocation-based PK–PD model (GT model) was designed as follows:7 dG4A/dt=α∙CIns-C00-G4A/TAB, 8 dG4B/dt=G4A/TAB-G4B/TBA. || page 3: Parameters Estimated values Pharmacokinetic parameters k12 (min-1) 0.843 ± 0.25 k (min-1) 0.419 ± 0.073 21 k10 (min-1) 0.000314 ± 0.0079 Km (ng/kg) 1538 ± 624 Vmax (ng/kg/min) 3243 ± 649 Vc (mL/kg) 29.3 ± 6.6 Pharmacodynamic parameters of the IR model Kd (nmol/L) 2.062 FIX SC50IR (%) 7.60 ± 1.8 SmaxIR 3.01 ± 0.31 γ 2.25 ± 1.8 IR kGoutIR (min-1) 0.0208 ± 0.0018 Pharmacodynamic parameters of the GT model α 0.153 ± 0.56 T (min) 3 FIX AB TBA (min) 20 FIX SC50GT 100.22 ± 354 SmaxGT 2.58 ± 1.3 γGT 0.736 ± 0.11 kGoutGT (min-1) 0.141 ± 0.021 Supplementary Table S1. Pharmacokinetic and pharmaco ...

Substance: Human recombinant INS (Humulin R)
- Km, Michaelis-Menten kinetic constant of elimination [1]: 1538 ± 624 ng/kg
- Vc, volume of distribution for the central (plasma) INS compartment [1]: 0.0293 ± 0.0066 L/kg
- Vmax, Michaelis-Menten kinetic constant of elimination [1]: 3243 ± 649 ng/kg/min
- time required for the maximal hypoglycaemic effect ([2]; after single i.v. bolus administration, rats (Fig. 3)): about 20 min
- area between the effect-time curve and the basal concentration (AUE), pulsatile administration compared with single bolus ([2]; total 0.5 IU/kg i.v. within 2 h, 2-20 pulses vs bolus 0.5 IU/kg, rats, depends on pulse rate, saturated above four injections, Dunnett's test, n = 3-4): significantly higher
- Kd [3]: 2.06 nM

From article PMC7608663, “Pharmacokinetic–pharmacodynamic modelling of the hypoglycaemic effect of pulsatile administration of human insulin in rats” (Scientific Reports, 2020)
